Data as given in the domain aggregation screens of Martell et al. (2025).

Test: soluble fraction after stress (log2 fold change); higher = more stays soluble; pooled small domains, quantitative proteomics
Conditions: stress: 50 degC
Summary of the method: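 Quantitative proteomics served as the high-throughput read-out for pooled custom libraries of small protein domains. Each was stressed at 50°C. Aggregation propensity is expressed as the base-two log fold change in soluble protein after stress. A higher value means a larger share of the protein remains in solution.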

Row | Sequence | soluble fraction (log2)
1 | HMNNQMTFSKFLNEVDAGRVVEVEIQGNNIKGVLADGNRFNTFSPNYPNLVEKLSDKGVSITAAPK | 0.0484
2 | HMRPEVTEHLKTADAILHGGDINRQSIVDELRQYAPLYIVRGNNDKDWAEAIPHDLTVTLGGVTFFMVHNR | -0.0555
3 | HMGSTVRIVVPAADIPAYKDIQPSDLEYREVPKDEISEDAVTDPQEVINKYSTSPLYAGWPINKNIIET | 0.0298
4 | HMVMTTVPEVLGMDIRTAASMLTGKNLKYDYDLVESDKPKDEVIEQDQAKGTEVPEGTVVKLKVSKGPA | 0.0583
5 | HMAFDGIVLKNITNALKELINGKINKIQQSSKDNLTLSIYNQKSYNLYIDISANNYRVNLTTHSE | 0.103
6 | HMNRIGERIKRKRELRNLNLGELAEKVGISASALSQIEKSKSFPSVITLKSIAEQLRTTVGELIGEN | 0.0607
7 | HMAPRSSAVYFYLSQVALKKNQPRKAEAMARRGLTVSQDANRRRALWQLILRSGQAQNNTRVIREAQQAL | 0.19
8 | HMTISAQAITPRLEVIKNFVLMEEWDAAQTQLEKLRSFTEIWSLDPLFSAMKKKDGQKISDWITGFIKDNM | -1.15
9 | HMDSESGAIIRRAVAQLAPKFRSTIVLRLIEGYSTEETAQILQLPVGTVLSRLARAKVQLMNLLTPYKEL | -0.126
10 | HMKIRIIKTASNAKAVQIVSYKNNKRIVLQHIGSAHTDETLNDLKILAEEWIKDYNHQLSIF | -2.49
11 | HMNIKITKSKNSEHYSIIYNTKINGKRTSKIYENIGNFEKLKLRAGEQEPIEWLKNYVSELNKKQKEDT | 0.109
12 | HMQATETFSLIVPMSSAGNRLDVVLSELLPNFSRKKIQDAIKNGDATLNGKAPKIRDKVYGGENITITLIL | -0.432
13 | HMKKISAKQQQILDYISSYSLEHGYPPSVREIGAEMGLRSPSTVHAHLKKLQEAGYLEPNEHKSRALTP | 0.128
14 | HMTPNATWQDDAQSLLRDLIQHQPVLIQISAAKRLRDQAEQISRITGGDTVTRDHVEAAGHALGMGVT | 0.0517
15 | HMTKTKADKIDYAIGDSGTEPPTEDKWTDLAHLPLIKAGQFQWTRRTEYYSDGSTAVSYNIAKSE | 0.0286
16 | HMQGDHELSQRILSYLSEQGGSSPLTDKASPEEIYRIFRVSKKKYKQALGNLYKSKSIIILADKIQLL | -0.736
17 | HMLAKRYLVYGSGSLNSAYPDTKNIAYGIDSGKGFFLVGILTENEASKLKLKGYYVIEDFPLDFH | -1.43
18 | HMFTSVDVAPDLRTAKVFYSVLGRKKSDKEINIAINQKRKAFKKFMGPELHLKNIPDLHFYYD | -0.232
19 | HMSVDDYLKFSGSGTYWNTQDRGKTYLVNGQQRPLRDKEYLPDVMHRHVIDFITKHRDRPFYIYYSM | 0.0643
20 | HMPMDYFELFNIPRNANRETIKKILDQEYEKYRARVVSPVLEIRHEAELMLVEISKAKQVLLG | 0.111
21 | HMPAEGWEASGDTWRYRQKDGSYITNAWVQDTDGKWYYFDESSLMVRNQTTSDGYYVGEDGVWTET | -0.395
22 | HMRKVVLEEKEANYYAEPNSESELLGVLKRGIHLTVTDVKKEAGSDGWVKLVHPDGQEGWISGRARIRV | -0.0551
23 | HMKVFTEDEMLEKIKEYLSTNSYINRRVMETQFGLRQNIALKWLKHFTEIGVLRKEGERNSPIYFLNN | ≥ 0.62
24 | HMALDSQEVGYNIEARGARPVVAQLGKAGQFSAVENSIRLGDDNWIALAPKLAGGGNAGFTAGIKSALS | 0.0371
25 | HMSYGKVQFVIDAKDAVLSIDGKETDYEKPVKLTYGSHTITVYSSDYDTWKRNLYVNSEKSTVVINLA | -2.72

Row | Sequence | soluble fraction (log2)
26 | HMEAFAEAVASMLRKLQPEFAIDLVGPRELLVNGRRLDLENLYRMVNHEPVRGQEIVEHYLDQLFAG | -0.53
27 | HMLTAPMPGIVTEILVKEGQRVRSGQPLMILEAMKMEHQVTAPKSGQIEKIYFSEGEKVDMGSDLLSIS | 0.181
28 | HMSNLTDLVSAKEAEVYLHFLESGSTAGMTEAELRAVRKIEELIQSNKIDYNGILRIRNETVK | 0.139
29 | HMNSVAASLREISIKVSGTEDADKVSRLQELSQMPKLDASGIAEANTLLEQLRAKYGDLGLSVDTARGRIV | 0.284
30 | HMTEKEEERTEDLNYYRLNLISMLKSSYPEYLDDEEFISNRSQEAAEAFEDAVRSGSNYLDASAESNRTLY | -0.362
31 | HMQNLETVEEIKELALNYLDKYQPSKKSLQVYLFRKAIDAQSNSVEKSEILKKIETVLTDLEEQGILNDAL | 0.0664
32 | HMAASTPGTVTGSVVNVRPDPSTNNDRIGVIYQGTKVEILAQVGEWYNIQFGPVSGWVHKDYISTGA | 0.00638
33 | HMINFLSKREIEVLRLVADGLSNRDVGQYLFISESTVKRHLSTIYEKLAVKSRTQAIDHARRADL | -3.91
34 | HMTPTVEAAKEEVLRVLASAAPRGLTRTELEAEVSFRRTKLRDTLVELERIGRIDSVGRRGNATTYRLIG | -0.615
35 | HMADQVLVMTRAVGQGDIVRNADIGLTSVAVDRAVATIPASQLDKIVGRHALVDLSPGQLLGSHSVGE | 0.035
36 | HMFSQDQIFLRSGEKIDARVIEVTPEFIKYKSKANPEGPLYSKKITDVLLITYANGTTEVYE | -0.00684
37 | HMGSLAVVPSLTGKTLQEAQSKAADYGLALEIEGYVASTAVDYGRIVSQSPDAGFSVKSGSSVKVSVSAG | 0.117
38 | HMSTASPEELRQTPERRRLIEYLREHGGHGRTSEIAAALGIDDSTASRLLRRLADNGLIVRTQYGEYTLLQ | 0.0183
39 | HMPLRPNQRQFIHLMVYQGLDRNEAYAQANNKVLTEENYESIRTAAAKTFYTPHVNNYYHALMEEIRDRE | -0.299
40 | HMKAGAVFNEGDVLYPKIGGLKLMAAAGEGGKVVATLAKTDEMIYMGEEQSGFVKVESGSGSGWVKKILVA | 0.366
41 | HMKQNNYATKKELNFFVSRLISLLSYRDFFNPIEKKESMINNIEAIFTRSSLTSQELRTLHGIISNLVE | -3.07
42 | HMNIDEIIGKKAVVIESIDNLQGTGKVRYQGMEWTARAEEENDRIEKDAEVEIIAVKGVKLIVKMK | -0.13
43 | HMQGISGIERSLLDALAFEPAGLDALQARTGLDTPTLQALLMGLELQGHVARLPGSLFQRLVR | -0.523
44 | HMEKYIVEAEEQGKRLDMYISSKDEELTRTSAQRLIEQGDILVNNKKVKVAYKVSEGDIIAVEKQ | 0.0849
45 | HMNVDALIGTKGIVVQPIRPFAVGQVKVNGQVWSAVGKTPETDIEQGREVKVHAIEGVKLVVTPT | 0.251
46 | HMPFESEMKHWIHLFAHELNLKVSDKYTQKIIEIFGNNFSEIFNEMSKSSLVSSNEKDLLNALEKSGNIH | -0.678
47 | HMDRMINYSPIVAKVPQDDYTTKVYNIPIYSELTVVDKISEPEPLIAPIYRFKYITPEDEEIEFDIPV | 0.0278
48 | HMDDILAYEIEDKEDLENLSLGKSIGINLNKLIKPTLNSFDNSLLFLSKKGNIISYGKLNGDLFKPKKVL | 0.0598
49 | HMKLSALRDKIKEHLLRQIQNGELQVGKTINLAALSRVTGISVTPIREALTQLEQAQVIQAVPNRGFVVA | 0.00526
50 | HMKLIIVPNLVGQSRRSVEISLQQIGLRIDTVYTEFNPDYPKGTVAWQFPKSGDHIKKGMGLQITVSQG | -0.522

Row | Sequence | soluble fraction (log2)
51 | HMAEMLENQLKHAKSKQEANEYIAAAIGGVSDDDPDKEYLVAAYNEISKEFHHSSAYHRLPDT | -0.0511
52 | HMEGSVTVMVNGESVTMTGKQNYIFVDVFDWYSFDLSAGKGRAIATLVNGKEAEFSQPLANGDNIELYWKE | -0.118
53 | HMNENYNLSKREKEVLDLLVNGKSYKVIATELAISYETVHSHIKKIYHKLHVSSIGEAVSKTIKQKIL | -1.58
54 | HMGVSVNVQPAILDWAMQKAQMGNAGSSVIEMIAKWISGEKAPTFNQIEDVSKKISIPFGFFFLKEPPIE | -0.951
55 | HMEKLIRIKRLIKQLNEYRDSYYNEARPVVSDAAYDKLFDELSELEKETGVVYANSPTQTVG | -0.149
56 | HMARAGKLAQDMAVWTKETMLNTERNFISLRHFKRELLRRTLAPGESEQTVRAMEEAGYIQVKDGLVFPIK | -1.74
57 | HMKFPPASDIRRMRKAIDVTQTELAKQSGVSQSTIAKIERGRISASYDTVVKLFETLDEMAK | -0.141
58 | HMQIYSQEIYDAQKVLKELGLYTSDLDGLNGPGTKRALRNFQSKSGLNADGVLGPLTKSALDKGEESYITV | 0.0375
59 | HMTERIRLHDDIGSWVEKHGATRSALIPVLQGIQRSYNEISEYAMQEVADRLDIHPVEVYSVVSFYSF | -0.0419
60 | HMAVELPLETTLDIVRKYARNQEVDRRAERVEAVSAEALQTLAPRGTKLASEIVEQAKTQVLEELA | 0.177
61 | HMPRNEIQRSVLNELVQWIKNNLAKKLTMQALSRFSGYSEWHLFRLFRHYFNMSPMAYIRQQRMQ | -0.265
62 | HMKDLQHLVGEKGTTVTPLRPSGIALIKGSRYDVVSEGSFIQQGVAVEVIKVEGRRVVVSPLQED | -0.16
63 | HMQPPKIISTVEPYREVVREYLKQGVEMTAIWQRLRENYQYTGSYSSVRRFVAQLEPRQPEA | -1.01
64 | HMDDDIKNALDVLPEQYRMTVYYADVEGLAYKEIGAIMNTPIGTVMSRIHRGRSQLRVLLAAVAADR | -0.0377
65 | HMIKISDYLSEEDLNFIKEMEKIYPYFDFDSEGNLILTKSIDELKDKYGFDEAFVSRLDTVLNSR | 0.0178
66 | HMTSKTLSAVEGEGLRLDKFLSNQLPELSRTKIQKMINDGLVFVNNTEAKASLILDGSEFIAYTVPD | -0.0541
67 | HMKELVAGQTVRVHHSIGFGQTGTVTALNSLKTTLPNGLRTNTASILFQNNEKVVLPISNFDIIES | -0.139
68 | HMPTPRVPMSKQRQILQLLQDGHLSTREIAAALHISKTSVGDIAKAARLAGLDWEAASKLSDEELSARIYK | -0.00175
69 | HMVGADTISDLISQRGRMIGDKPITNAVIKSGSEFSTINALSKAIASGDARTNDVEGMKPVFR | -0.0638
70 | HMTPESSLHSGLGKILHDALTAKIQLTNFEAKFLSDMQSKYDLNGSFSWLSSKQQTTLEKILAKYGR | -0.841
71 | HMSQKVQEDFLGDIRKNEIAVTVFLINGVKLQGVITWFDDASILLRRDGHTQLIYKHAVSTIMPGVAVDI | -0.118
72 | HMDGRSLSHATLEEIRIRAVQRVEAGESPEVVVKALGFSRPRIYEWLALYREGGLEALRAKPV | -0.505
73 | HMAQVSDDAELEKWADTAIDEHPKPVEEYRAGNAASINFLMGQVMKMSRGKANPGAVMQILKQKLD | 0.109
74 | HMDPERVVGQTGIVHLRIPARQHNTGKVMIEVQGSLREFDAVSEAEEIPTGTPILIVGRTEEGVFIAQPF | -0.0467
75 | HMATPYISMAGIGKSFGPVHALKSVNLTVYPGEIHALLGENGAGKSTLMKVLSGIHEPTKGTITINNIN | 0.384
